For this experiment, the target named is histidine tagged p85 with serine 83 mutated to alanine (p85^S83A) (UniProt P27986). Nature of the experiment: cell-based or functional assay.

Sequence of HA-14-3-3 zeta (hemagglutinin-tagged 14-3-3 zeta) (P63103 whole entry): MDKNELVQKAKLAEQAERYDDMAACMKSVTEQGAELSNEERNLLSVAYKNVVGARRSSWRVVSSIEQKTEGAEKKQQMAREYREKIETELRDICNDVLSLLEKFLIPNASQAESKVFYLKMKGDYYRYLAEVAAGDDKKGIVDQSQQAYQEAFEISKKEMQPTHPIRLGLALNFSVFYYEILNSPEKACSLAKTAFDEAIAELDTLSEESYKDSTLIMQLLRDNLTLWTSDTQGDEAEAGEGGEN

With “HA-14-3-3 zeta (hemagglutinin-tagged 14-3-3 zeta) (from UniProt P63103 1-245)”, the decrease in activation of PI3K (production of PIP3 in PY20 immunoprecipitates) worked out at 35%.

The values above are taken from patent US20050148532A1.
